The assay deals with Fibroblasts. Description: Hyaluronic acid production by cultured fibroblasts (ELISA of culture medium). The class given is cell-based. The settings on record: fibroblast culture; even at the lowest concentrations tested. How it is done:
Fibroblasts were seeded into individual wells of a 12-well plate in 1.0 ml of Fibroblast Growth Media (FGM) and incubated overnight at 37±2° C. and 5±1% CO2. On the following day the media was removed via aspiration to eliminate non-adherent cells and replaced with 1.0 ml of fresh FGM. Cells were grown until confluent, with a media change every 48 to 72 hours. Upon reaching confluency the cells were treated for 24 hours with DMEM supplemented with 1.5% FBS to eliminate growth factors from the normal culture media. After this 24-hour wash-out period the cells were treated with the indicated test materials (i.e., milk-derived products containing lactoferrin) at the specified concentrations dissolved in FGM with 1.5% FBS. Dibutyrl cAMP (DBcAMP) at 0.1 mM was used as a positive control. Untreated cells (negative control) received FGM with 1.5% FBS. The cells were incubated for 48 hours and at the end of the incubation period cell culture medium was collected and either stored frozen (−75° C.) or assayed immediately. All testing was done in triplicate.
A series of hyaluronic acid standards from 50 ng/ml to 3,200 ng/ml was prepared. […] After incubation, 50 μl of stop solution was added to each well and the absorbance was measured at 405 nm using a plate reader. Hyaluronic acid production was expressed as ng/ml and results are shown in Table 1 and the graph of FIG. 1.

B1: bovine milk-derived lactoferrin: multi-functional protein found in mammalian milk, primarily in the whey fraction (protein, UniProt P24627 20-708, looked up)
Lactotransferrin: APRKNVRWCTISQPEWFKCRRWQWRMKKLGAPSITCVRRAFALECIRAIAEKKADAVTLDGGMVFEAGRDPYKLRPVAAEIYGTKESPQTHYYAVAVVKKGSNFQLDQLQGRKSCHTGLGRSAGWIIPMGILRPYLSWTESLEPLQGAVAKFFSASCVPCIDRQAYPNLCQLCKGEGENQCACSSREPYFGYSGAFKCLQDGAGDVAFVKETTVFENLPEKADRDQYELLCLNNSRAPVDAFKECHLAQVPSHAVVARSVDGKEDLIWKLLSKAQEKFGKNKSRSFQLFGSPPGQRDLLFKDSALGFLRIPSKVDSALYLGSRYLTTLKNLRETAEEVKARYTRVVWCAVGPEEQKKCQQWSQQSGQNVTCATASTTDDCIVLVLKGEADALNLDGGYIYTAGKCGLVPVLAENRKSSKHSSLDCVLRPTEGYLAVAVVKKANEGLTWNSLKDKKSCHTAVDRTAGWNIPMGLIVNQTGSCAFDEFFSQSCAPGADPKSRLCALCAGDDQGLDKCVPNSKEKYYGYTGAFRCLAEDVGDVAFVKNDTVWENTNGESTADWAKNLNREDFRLLCLDGTRKPVTEAQSCHLAVAPNHAVVSRSDRAAHVKQVLLHQQALFGKNGKNCPDKFCLFKSETKNLLFNDNTECLAKLGGRPTYEEYLGTEYVTAIANLKKCSTSPLLEACAFLTR
Consider B1, for which the “hyaluronic acid levels compared with untreated fibroblasts” value was “detectable and significant increase”.

(Values after patent US20090215693A1, “METHODS FOR INCREASING HYALURONIC ACID LEVELS AND IMPROVING MOISTURE RETENTION IN TISSUE” (priority 2008, published 2009).)
